{"source": "paper PMC5419587", "about": "(Virology, 2017)", "binders": {"B1": {"name": "MYXV M062 protein, purified (natural protein)", "chain": "MGVQHKLDIFLVSEGIAIKEANLLKGDSYGCTIKIKLDKEKTFKFVIVLEPEWIDEIKPIYMKVNDESVELELDYKDAIKRIYSAEVVLCSDSVINLFSDVDVSYTCEYPTIKVNTIKKYYSVQNRGMTYVHIESPINTKDKCWFVEKNGWYEDRTHS"}}, "biological_target": "T1, SAMD9 1-385, purified (human, UniProt Q5K651 1-385)", "T1 sequence (looked up)": "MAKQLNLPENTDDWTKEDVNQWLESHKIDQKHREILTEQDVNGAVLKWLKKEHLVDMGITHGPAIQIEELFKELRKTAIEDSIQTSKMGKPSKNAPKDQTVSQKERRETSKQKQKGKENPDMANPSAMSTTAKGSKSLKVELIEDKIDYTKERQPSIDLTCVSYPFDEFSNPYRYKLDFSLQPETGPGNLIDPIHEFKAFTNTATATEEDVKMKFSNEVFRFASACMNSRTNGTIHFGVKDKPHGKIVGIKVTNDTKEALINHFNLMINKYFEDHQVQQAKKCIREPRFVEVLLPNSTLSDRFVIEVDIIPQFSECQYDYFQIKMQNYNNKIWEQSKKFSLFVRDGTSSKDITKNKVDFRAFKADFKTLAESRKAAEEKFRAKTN", "assay": "SPR"}
{"binder": "B1", "values": [{"measurement": "Kd", "result": "10 ± 5", "unit": "µM"}]}
